Measurements published in patent CN112646029A.

Molecular target: T1, mBDNF (成熟脑源性神经营养因子, mature brain-derived neurotrophic factor) (Helarctos malayanus (Malayan sun bear) (Ursus malayanus)) (UniProt O18753)
T1 sequence: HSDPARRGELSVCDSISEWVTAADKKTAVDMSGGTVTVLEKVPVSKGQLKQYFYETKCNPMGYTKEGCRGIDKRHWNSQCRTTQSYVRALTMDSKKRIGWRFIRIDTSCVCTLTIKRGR
Assay: ELISA; antigen coated on the plate, purified antibody added, secondary antibody, TMB, OD450

- lowest antigen concentration at which the antigen was detected: 1.95 ng/mL
B1: 抗mBDNF抗体 (anti-mature brain-derived neurotrophic factor antibody) (antibody, V domains shown)
VH: EVKLEESGGGLVQPGGSMKLSCVASGFTFNNYWMNWVRQSPGKGLEWVAQIRLDSDNYATHYAESVIGRFTISSDDSKSSVYLQMNNLRAEDTGIYYCTAFDYAMDYWGQGTSVTVSS
VL: DIVMTQSHKFMSTSVGDRVSITCKASQDVGSAVAWYQQKPGQSPKLLIYWASTRHTGVPNRFTGSGSGTDFTLTISNVHSEDLADYFCQQYSSYPLTFGSRTKLEIK
